Results on one substance are retold here after paper PMC10019796.

The target of this assay is mtDsbC-SARS-CoV-2 RBD Alpha variant (B.1.1.7) fusion protein (SARS-CoV-2) (UniProt P0DTC2). The experiment in a line: BLI; biotinylated mtDsbC-RBD (20 µg/mL) immobilised on streptavidin (SA) biosensors, Fabs as analytes at three nanomolar concentrations; Octet RED384, 30 °C, 1000 rpm, 1 × PBS Kinetics Buffer; 1:1 interaction model, global fit. Background: In BLI a coated tip is dipped into the sample, and binding shifts an interference pattern.

A value given as a limit tells only on which side of the number the result lay.

As for REGN10987 (L93Q) Fab, the Kd (in general, the equilibrium constant for the complex coming apart) was more than 1000 nM.
